# From patent US20020090619A1, “Methods for identifying mitochondrial divalent cation transporters” (priority 2000, published 2002)
# How the values were obtained:
# [1] = tested on: isolated yeast mitochondria; assay: Ca2+ transport in isolated yeast mitochondria expressing aequorin (luminescence); assay type: biochemical, Saccharomyces cerevisiae; conditions: 2 μM A23187, medium containing no added Ca^2+, FIG. 22B
# Procedure: For preculture, the transformant was inoculated into 50 ml of SC-U plus 2% glucose, and incubated in an air shaker at 180 rpm and 30° C. At 24 hr, the preculture was transferred to 500 ml of a medium containing 1% yeast extract, 2% peptone, 2% lactate, 1% galactose, 0.012% adenine, pH 5 w/NaOH, and growth was continued under conditions which were otherwise the same. Cells were harvested after an additional 24 hr, spheroplasts were prepared using zymolyase, and mitochondria were isolated by the method of Daum et al. (1982) as previously described (Jung et al., 1997). The final pellet was resuspended at ˜20 mg protein/ml in 0.6 M mannitol, 20 mM HEPES (K^+ salt, pH 6.8). Apoaequorin in the intact or disrupted mitochondria was reconstituted by incubation with coelenterazine as described above for cells.
# For most experiments, the mitochondria were present at 0.4 mg protein/ml in a standard medium that contained 0.3 M KCl, 20 mM HEPES, (K^+ salt, pH 7.10), 10 mM KH2PO4, 2 mM EGTA, and 2 mM MgCl2. Other additions are described in greater detail below. Ca^2+ buffers were formed by adding various amounts of CaCl2 to this EGTA containing medium. The free Ca^2+ concentrations which resulted were calculated using a computer program (Brooks et al., 1992 Anal. Biochem. 201:119).
# Luminescence measurements were carried out in 6×50 mm culture tubes, using a total volume of 0.3 ml, and were started by injection of 5-20 μl of mitochondria or cells. A SAI model 3000 integrating photometer was employed, with AJD sampling at 0.4 seconds intervals driven by Asyst software. Values were transformed into corresponding Ca^2+ concentrations by computer assisted calculations based upon published calibration methods (Allen et al., 1977 Science 195:996; Brini et al., 1995 J. Biol. Chem. 270:9896). For each value, the ratio of observed luminescence (L) to the potential luminescence remaining (Lmax) was calculated, and compared to a calibration curve which relates this ratio to the free Ca^2+ concentration. Thus, complete calibrated progress curves were generated. The total luminescence available initially (Ltotal) must be known and was determined in separate experiments, wherein a saturating Ca^2+ concentration (20 μM) is employed to discharge the aequorin completely. This value allows Lmax to be calculated at any time, as Ltotal minus the sum of luminescence that already occurred.
# The calibration data were obtained at an ionic strength of 335 mM and in the presence of 1 mM Mg^2+, to mimic conditions in the mitochondrial matrix, because both factors influence the affinity of aequorin for Ca2+ (Cobbold et al., 1987 Biochem. J. 248:313). Luminescence values were corrected for low background values that are obtained when Ca^2+ is absent before conducting further calculations.
# [2] = tested on: intact yeast; assay: Aequorin luminescence in intact yeast cells expressing mitochondrially targeted aequorin; assay type: cell-based, Saccharomyces cerevisiae; conditions: intact cells
# Procedure: Yeast cells (strain X4003-5B; leu2, ade1, his4, met2, ura3, trp5, gal1) obtained from the Yeast Genetic Stock Center (Berkeley, Calif.) were transformed with the pYES2 plasmid, encoding the human mitochondrially targeted apoaequorin fragment, using the lithium acetate method (Sambrook et al., 1989), and INVSc1 cells were transformed with the pGK plasmid encoding the yeast mitochondrially targeted apoaequorin fragment. Selection was carried out on plates prepared with synthetic complete medium minus uracil (SC-U) (Sherman, 1991 Meths. Enzymol. 194:3). Transformed colonies were cultured in a small volume of SC-U and assayed for aequorin activity in vitro as described by Nakajima et al. (1991 Proc. Nat. Acad. Sci. USA 88:6878). Briefly, the cells were harvested by centrifugation, resuspended in lysis buffer (50 mM Tris, 2 mM EDTA, 0.5 mM PMSF, pH 8 w/NaOH), disrupted by vortexing with glass beads, and then treated with 0.1% Triton X-100 to release apoaequorin from the mitochondria. Following centrifugation, 200 μl aliquots of the supernatants were incubated with coelenterazine (2.5 μM) and 2-mercaptoethanol (2 μl), for ˜3 hr while standing on ice, to form the luminescent aequorin from its apoprotein. The coelenterazine cofactor is highly hydrophobic and readily permeates yeast cell membranes (Nakajima et al., 1991) such that reconstitution was conducted without disrupting the cells in some cases. 2-mercaptoethanol was omitted when intact cells were employed. A transformant which yielded high luminescence (named X4003-5B-AEQmito1) was selected for further characterization.
# For preculture, the transformant was inoculated into 50 ml of SC-U plus 2% glucose, and incubated in an air shaker at 180 rpm and 30° C. At 24 hr, the preculture was transferred to 500 ml of a medium containing 1% yeast extract, 2% peptone, 2% lactate, 1% galactose, 0.012% adenine, pH 5 w/NaOH, and growth was continued under conditions which were otherwise the same. […]
# Luminescence measurements were carried out in 6×50 mm culture tubes, using a total volume of 0.3 ml, and were started by injection of 5-20 μl of mitochondria or cells. […] For each value, the ratio of observed luminescence (L) to the potential luminescence remaining (Lmax) was calculated, and compared to a calibration curve which relates this ratio to the free Ca^2+ concentration. […] The total luminescence available initially (Ltotal) must be known and was determined in separate experiments, wherein a saturating Ca^2+ concentration (20 μM) is employed to discharge the aequorin completely. This value allows Lmax to be calculated at any time, as Ltotal minus the sum of luminescence that already occurred. […]
# [3] = Yuchi et al., 1993; cited from earlier work
# [4] = Esterase cleavage of divalent cation-sensitive indicator molecule precursors (fluorescence); assay type: biochemical; conditions: precursor 1 μg/ml, sonicated E. coli expressing the esterase
# Description: Standard molecular biology procedures were used (Sambrook et al., 1989 Molecular Cloning: A Laboratory Manual, Cold Spring Harbor Laboratory Press, Cold Spring Harbor, N.Y.). All reagents were from Sigma (St. Louis, Mo.) unless otherwise indicated. E. coli cells expressing esterases from several sources: B. subtilis para-nitrobenzyl esterase from plasmid PNB106R (Zock et al., 1994) (SEQ ID NO:1; SEQ ID NO:7); Acinetobacter areA expressed in E. coli strain BL21(DE3) (SEQ ID NO:2; from plasmid pADPW40, Jones et al. 1999 J. Bacteriol. 181:4568, obtained from Drs. R. Jones and P. Williams, Univeristy of Wales Bangor, UK); Acinetobacter SalE expressed in E. coli strain BL21(DE3) (SEQ ID NO:3; from plasmid pADPW70, Jones et al. 2000 J. Bacteriol. 1832:2018, also obtained from Drs. R. Jones and P. Williams, Univeristy of Wales Bangor, UK) were grown in 10 mL of standard LB media plus ampicillin (100 μg/ml) at 37° C. Tetracycline (10 μg/ml) was present instead of ampicillin for the cells expressing B. subtilis para-nitrobenzyl esterase. For strains expressing all proteins except para-nitrobenzyle esterase, the cells were grown to an OD (λ=600 nm) of 0.6 and protein expression was induced by administration of […] IPTG for 4 hours until the culture reached an OD600 of ˜1.0. Cells expressing para-nitrobenzylesterase were grown at 30° C. and protein expression was induced by a temperature shift to 40° C. for 6 hours. The cells attained an OD600 of ˜1.0. Cells were washed, pelleted by centrifugation, and then resuspended in 0.5 ml of cold 0.12 M Tris Cl, pH 8.0. Cells were sonicated for ten seconds and then incubated on ice for ten seconds. This sonication step was repeated eight times.
# For fluorescence measurements, a volume of 50 μl of the sonicated cell suspension was placed in 3.0 ml of 0.1 M KCl, 50 uM EGTA, 20 mM HEPES pH 7.40. As a divalent cation-sensitive indicator molecule, one of the following compounds (all from Molecular Probes, Inc., Eugene, Oreg.) was present at a final concentration of 1 μg/ml: BCECF AM (BCECF (2′,7′-bis-(2-carboxyethyl)-5-(and-6)-carboxyfluorescein), a proton indicator used as an esterase-cleavable control), Rhod-2 AM, Fluo-3 AM, Indo-1 AM, or Fura-2 AM. To monitor detection of divalent cation using the divalent cation-sensitive indicator molecules generated by esterase cleavage of the precursor forms, each reaction was made 2 mM CaCl2 The wavelengths used for the indicator dyes were as follows: Fluo-3, excitation 488 nm, emission 520 nm; Rhod-2, excitation 540 nm, emission 580 nm; Indo-1 AM, excitation 338 nm, emission scan […]; Fura-2, excitation scan 250-450 nm, emission 510 nm; BCECF, excitation 440 nm, emission 550 nm.
Molecule,hydrolysis of indicator precursors (AM esters) to Ca^2+-sensitive indicator molecules [4],further results
CNc1ccc2oc(C[C@H]3O[C@@]4(CC[C@H]3C)O[C@H]([C@H](C)C(=O)c3ccc[nH]3)[C@H](C)C[C@H]4C)nc2c1C(=O)O [A23187],,effect on matrix Ca^2+ concentration [1]: reduced the matrix Ca^2+ concentration below the detection limit; additional luminescence when added after the response to ETH 129 [2]: absence of any additional luminescence
COc1cc(N(CC(=O)O)CC(=O)O)c2nc(COc3cc(C)ccc3N(CC(=O)O)CC(=O)O)ccc2c1 [Quin-2],,pKa^4 [3]: 6.25
"Para-nitrobenzyl esterase: B. subtilis para-nitrobenzyl esterase from plasmid PNB106R (SEQ ID NO:1; SEQ ID NO:7) (protein, listed as Bascillus subtilis) MTHQIVTTQYGKVKGTTENGVHKWKGIPYAKPPVGQWRFKAPEPPEVWEDVLDATAYGPICPQPSDLLSLSYTELPRQSEDCLYVNVFAPDTPSQNLPVMVWIHGGAFYLGAGSEPLYDGSKLAAQGEVIVVTLNYRLGPFGFLHLSSFDEAYSDNLGLLDQAAALKWVRENISAFGGDPDNVTVFGESAGGMSIAALLAMPAAKGLFQKAIMESGASRTMTKEQAASTAAAFLQVLGINESQLDRLHTVAAEDLLKAADQLRIAEKENIFQLFFQPALDPKTLPEEPEKSIAEGAASGIPLLIGTTRDEGYLFFTPDSDVHSQETLDAALEYLLGKPLAEKAADLYPRSLESQIHMMTDLLFWRPAVAYASAQSHYAPVWMYRFDWHPEKPPYNKAFHALELPFVFGNLDGLERMAKAEITDEVKQLSHTIQSAWITFAKTGNPSTEAVNWPAYHEETRETVILDSEITIENDPESEKRQKLFPSKGE",detectably hydrolyzed all divalent cation-sensitive indicator molecule precursors that were tested,
"SalE esterase: Acinetobacter SalE esterase expressed in E. coli BL21(DE3) (SEQ ID NO:3) (protein, listed as Acinetobacter sp.) MITYVLVHGSWHDGSLWEPVATHLRAQGHTVHCPTVAGHGPNADRNVTHAQCSQSIADYIVKHDLSEIVLLGHSYGGTIISKVAEAIPERIQRLIYWNAFVLQDGENMFDNMPEAYYELFTSLAAASGDNTVLLPYEVWRHAFINDADDQMAEETYKMLTPEPCQPFHDRLDLKKFYTLNIPKSYLNCTEDQALPAGFWHPKMSNRLGEFKLVEMGGSHEAMFTRPQELATKIIEASHD",no apparent Ca^2+ sensitivity was detected,
"areA: Acinetobacter areA esterase expressed in E. coli BL21(DE3) (SEQ ID NO:2) (protein, listed as Acinetobacter sp.) MLQSLDPQLASFFAMLENQGAPAFDIGTLNDPNINEMRNWYLNFGPHVAGQFIELQDVEDLWIQVDDGSLRLRLYKTQRQHSESCETLIYFHGGGWCIGSIETHDLLCRHLVNDLDVNVISVDYRLAPEYPYPQAAHDAIHATQWIFEHASALGIHPDHLYVAGDSAGGNLAAITALTFKEQTYRTSLAGQILIYPCIDLTVIHDNKYPSFEKQKLTPPLSAEQMSKMIQIYLKNEDFAYQWLASPLLAQSHQHLPSTLIITAEFDPLHDQGCVYFEKLKSSLVNTEYHEIKGVVHGFFEMYGVLNKTKETINIIRAWLKNNTKSK",rate of hydrolysis appeared to be significantly slower,
"HD-1 esterase: HD-1 esterase from an oil degrading bacterium (SEQ ID NO:4) (protein, Sequence encoding petroleum-degrading bacterium esterase.) MTLDAQAKAILDQIARSPMPKLHQVPASVARQMFEISCKLTEIKNLPIGRVEDRVIPGPDDTELPIRIYTPVAAPPGPLPVLVFFHGGGFVIGSLDSHDAPCRLIANEARCLVVSVDYRLAPENRFPAAVDDCLAAVTWVARNAAEINADPTRIAVGGDSAGGNLSAVVSQQLRDAGGPKIVFQLLIYPATDALHEGLSRTSNAEGYMLDKDLMSWFFAQYLGDGGGVDLADPRFSPLRHANLGNLGTIHVVVAGFDPLRDEGIAYAEALKAAGNKVTLSEFKGQIHGFCSMAGVIEAGRTALVEGAALLKEAFAQA",Slow hydrolyses of Fura-2 AM and Indo-1 AM,
